Laboratory results: article PMC9530649 (Cancer Immunology Research, 2022)

B1: recombinant human LAG-3–Fc protein (hLAG-3–hFc) (Fc fusion)
chain: LQPGAEVPVVWAQEGAPAQLPCSPTIPLQDLSLLRRAGVTWQHQPDSGPPAAAPGHPLAPGPHPAAPSSWGPRPRRYTVLSVGPGGLRSGRLPLQPRVQLDERGRQRGDFSLWLRPARRADAGEYRAAVHLRDRALSCRLRLRLGQASMTASPPGSLRASDWVILNCSFSRPDRPASVHWFRNRGQGRVPVRESPHHHLAESFLFLPQVSPMDSGPWGCILTYRDGFNVSIMYNLTVLGLEPPTPLTVYAGAGSRVGLPCRLPAGVGTRSFLTAKWTPPGGGPDLLVTGDNGDFTLRLEDVSQAQAGTYTCHIHLQEQQLNATVTLAIITVTPKSFGSPGSLGKLLCEVTPVSGQERFVWSSLDTPSQRSFSGPWLEAQEAQLLSQPWQCQLYQGERLLGAAVYFTELSSPGAQRSGRAPGALPAGHL
B2: recombinant human fibrinogen-like protein-1 (FGL1)–mFc fusion protein (Fc fusion)
chain: LEDCAQEQMRLRAQVRLLETRVKQQQVKIKQLLQENEVQFLDKGDENTVIDLGSKRQYADCSEIFNDGYKLSGFYKIKPLQSPAEFSVYCDMSDGGGWTVIQRRSDGSENFNRGWKDYENGFGNFVQKHGEYWLGNKNLHFLTTQEDYTLKIDLADFEKNSRYAQYKNFKVGDEKNFYELNIGEYSGTAGDSLAGNFHPEVQWWASHQRMKFSTWDRDHDNYEGNCAEEDQSGWWFNRCHSANLNGVYYSGPYTAKTDNGIVWYTWHGWWYSLKSVVMKIRPNDFIPNVI
B3: LAG3.1-G4P (antibody, V domains shown)
VH: QVQLQQWGAGLLKPSETLSLTCAVYGGSFSDYYWNWIRQPPGKGLEWIGEINHNGNTNSNPSLKSRVTLSLDTSKNQFSLKLRSVTAADTAVYYCAFGYSDYEYNWFDPWGQGTLVTVSS
VL: EIVLTQSPATLSLSPGERATLSCRASQSISSYLAWYQQKPGQAPRLLIYDASNRATGIPARFSGSGSGTDFTLTISSLEPEDFAVYYCQQRSNWPLTFGQGTNLEIK
B4: LAG-3.1-G4P-FITC (fluoresceinated LAG3.1-G4P, parent antibody of relatlimab) (antibody, V domains shown)
VH: B3 VH
VL: B3 VL

What was measured:
[1] = target: recombinant human LAG-3–Fc protein (hLAG-3–hFc) (human) (UniProt P18627); experiment: SPR
[2] = target: recombinant human LAG-3–Fc protein (hLAG-3–hFc) (human) (UniProt P18627); experiment: ELISA
[3] = target: cynomolgus monkey LAG-3 (cynomolgus monkey (endogenous in primary CD4+ T cells)); experiment: flow cytometry on cells
[4] = target: full-length human LAG-3 on CHO-S cells (CHO-huLAG-3) (Homo sapiens) (UniProt P18627); experiment: flow cytometry on cells
[5] = target: hLAG-3–mFc (Homo sapiens) (UniProt P18627); experiment: flow cytometry on cells
[6] = target: B2; experiment: ELISA
[7] = target: B1; experiment: BLI
[8] = target: T1, LAG-3 D1 insertion-loop peptide P60[…]75 (Homo sapiens); experiment: ELISA
T1 chain: PGPHPAAPSSWGPRPR

native human LAG-3 = native human LAG-3 (Homo sapiens, endogenous, UniProt P18627); experiment: immunostaining of cells or tissue
[9] = target: LAG-3 endogenous in normal human pituitary (adenohypophysis) (Homo sapiens, endogenous, UniProt P18627); experiment: immunostaining of cells or tissue
[10] = target: human LAG-3 fusion protein (used for pre-absorption of LAG-3.1-G4P-FITC) (Homo sapiens, UniProt P18627); experiment: immunostaining of cells or tissue

Question: What does the source list for relatlimab (antibody)?
Answer: Kd [1]: 0.12 nM; EC50 [2]: 0.49 nM; IC50 [2]: 0.019 nM; EC50 [3]: 29.1 nM; EC50 [4]: 1.46 nM; IC50 [5]: 0.67 nM

Question: How did the Kd [1] turn out when relatlimab Fab fragment (Fab 3.5) was run?
Answer: The Kd was 10 nM.

Question: Which EC50 [6] does the source give for B1 here?
Answer: The EC50 was 0.085 nM.

Question: Which Kd [7] does the source give for B2 here?
Answer: The Kd was over 1000 nM.

Question: What does the source list for B3?
Answer: EC50 [8]: 0.44 nM; binding result (native human LAG-3): binds

Question: Does B4 bind [9]?
Answer: Result: binds

Question: Does B4 bind [10]?
Answer: Result: binds
